Assay [1] deals with SARS-CoV-2 prototype (PT) RBD (SARS-CoV-2, UniProt P0DTC2). Kind of assay: SPR. Background: Surface plasmon resonance follows binding to a sensor surface in real time, without labels.
Another assay addresses TNF (human, UniProt P01375). Put plainly: SPR.

The Kd is the equilibrium constant for the complex coming apart.

TNF, sequence (P01375 77-233): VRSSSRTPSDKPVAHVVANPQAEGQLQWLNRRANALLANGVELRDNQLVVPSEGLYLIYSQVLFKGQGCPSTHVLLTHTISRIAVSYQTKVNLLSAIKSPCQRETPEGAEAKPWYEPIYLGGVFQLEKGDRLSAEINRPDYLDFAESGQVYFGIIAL

B1: ACE2 (M)-Fc-TNFR2 (Fc fusion)
chain: QSTIEEQAKFFLDYFNHEAEDLFYQSSLASWNYNTNITEENVQNMNNAGDKWSAFLKEQSTWAQMYPLQEIQNLTVKLQLQALQQNGSSVLSEDKSKRLNTILNTMSTIYSTGKVCNPDNPQECLLLEPGLNEIMANSLDYNERLWAWESWRSEVGKQLRPLYEEYVVLKNEMARANHYEDYGDYWRGDYEVNGVDGYDYSRGQLIEDVEHTFEEIKPLYEHLHAYVRAKLMNAYPSYISPIGCLPAHLLGDMWGQFWTNLYSLTVPFGQKPNIDVTDAMVDQAWDAQRIFKEAEKFFVSVGLPNMTQGFWEYSMLTDPGNVQKAVCHPTAWDLGKGDFRILMCTKVTMDDFLTAHHEMGHIQYDMAYAAQPFLLRNGANEGFHEAVGEIMSLSAATPKHLKSIGLLSPDFQEDNETEINFLLKQALTIVGTLPFTYMLEKWRWMVFKGEIPKDQWMKKWWEMKREIVGVVEPVPHDETYCDPASLFHVSNDYSFIRYYTRTLYQFQFQEALCQAAKHEGPLHKCDISNSTEAGQKLFNMLRLGKSEPWTLALENVVGAKNMNVRPLLNYFEPLFTWLKDQNKNSFVGWSTDWSPYADQSIKVRISLKSALGDKAYEWNDNEMYLFRSSVAYAMRQYFLKVKNQMILFGEEDVRVANLKPRISFNFFVTAPKNVSDIIPRTEVEKAIRMSRSRINDAFRLNDNSLEFLGIQPTLGPPNQPPVSGGGGSGGGGSGGGGSLPAQVAFTPYAPEPGSTCRLREYYDQTAQMCCSKCSPGQHAKVFCTKTSDTVCDSCEDSTYTQLWNWVPECLSCGSRCSSDQVETQACTREQNRICTCRPGWYCALSKQEGCRLCAPLRKCRPGFGVARPGTETSDVVCKPCAPGTFSNTTSSTDICRPHQICNVVAIPGNASMDAVCTSTSPTRSMAPGAVHLPQPVSTRSQHTQPTPEPSTAPSTSFLLPMGPSPPAEGSTGD
As to B1, in assay [1], the Kd was determined as 0.258 nM.

B2: TNFR2-Fc (Fc fusion)
chain: LPAQVAFTPYAPEPGSTCRLREYYDQTAQMCCSKCSPGQHAKVFCTKTSDTVCDSCEDSTYTQLWNWVPECLSCGSRCSSDQVETQACTREQNRICTCRPGWYCALSKQEGCRLCAPLRKCRPGFGVARPGTETSDVVCKPCAPGTFSNTTSSTDICRPHQICNVVAIPGNASMDAVCTSTSPTRSMAPGAVHLPQPVSTRSQHTQPTPEPSTAPSTSFLLPMGPSPPAEGSTGDFALPVGLIVGVTALGLLIIGVVNCVIMTQVKKKPLCLQREAKVPHLPADKARGTQGPEQQHLLITAPSSSSSSLESSASALDRRAPTRNQPQAPGVEASGAGEARASTGSSDSSPGGHGTQVNVTCIVNVCSSSDHSSQCSSQASSTMGDTDSSPSESPKDEQVPFSKEECAFRSQLETPETLLGSTEEKPLPLGVPDAGMKPS
Turning to B2, binding with TNF was put at a Kd of 0.0418 nM.

B3: ACE2 (M)-Fc (Fc fusion)
chain: QSTIEEQAKFFLDYFNHEAEDLFYQSSLASWNYNTNITEENVQNMNNAGDKWSAFLKEQSTWAQMYPLQEIQNLTVKLQLQALQQNGSSVLSEDKSKRLNTILNTMSTIYSTGKVCNPDNPQECLLLEPGLNEIMANSLDYNERLWAWESWRSEVGKQLRPLYEEYVVLKNEMARANHYEDYGDYWRGDYEVNGVDGYDYSRGQLIEDVEHTFEEIKPLYEHLHAYVRAKLMNAYPSYISPIGCLPAHLLGDMWGQFWTNLYSLTVPFGQKPNIDVTDAMVDQAWDAQRIFKEAEKFFVSVGLPNMTQGFWEYSMLTDPGNVQKAVCHPTAWDLGKGDFRILMCTKVTMDDFLTAHHEMGHIQYDMAYAAQPFLLRNGANEGFHEAVGEIMSLSAATPKHLKSIGLLSPDFQEDNETEINFLLKQALTIVGTLPFTYMLEKWRWMVFKGEIPKDQWMKKWWEMKREIVGVVEPVPHDETYCDPASLFHVSNDYSFIRYYTRTLYQFQFQEALCQAAKHEGPLHKCDISNSTEAGQKLFNMLRLGKSEPWTLALENVVGAKNMNVRPLLNYFEPLFTWLKDQNKNSFVGWSTDWSPYADQSIKVRISLKSALGDKAYEWNDNEMYLFRSSVAYAMRQYFLKVKNQMILFGEEDVRVANLKPRISFNFFVTAPKNVSDIIPRTEVEKAIRMSRSRINDAFRLNDNSLEFLGIQPTLGPPNQPPVS
B3 had a Kd in assay [1] of 0.274 nM.

Source of the values: PMC12521702 (2025).
